Biological target: T1, IFNAR2 extracellular domain (UniProt P48551 27-243, limits assumed)
T1 construct: extracellular domain; It was immobilized on a CM5 Biacore chip by lysine-specific coupling; also called IFNAR2ECD; IFNAR ECD
T1 sequence (looked up): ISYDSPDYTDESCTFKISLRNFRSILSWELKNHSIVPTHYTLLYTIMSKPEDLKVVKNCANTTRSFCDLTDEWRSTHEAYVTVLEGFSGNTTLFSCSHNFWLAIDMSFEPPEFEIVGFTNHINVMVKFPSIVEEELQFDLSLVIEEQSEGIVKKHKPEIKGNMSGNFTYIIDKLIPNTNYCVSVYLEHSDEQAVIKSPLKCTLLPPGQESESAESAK
Test: Biacore SPR, IFNAR2 ECD immobilized on CM5 chip, IFN injected, 1:1 model, average Kd
Procedure: The refolding reaction was then concentrated to 25 ml using an Amicon stirring cell, and dialyzed overnight against 20 mM Tris, pH 8, 20 mM NaCl, 10% glycerol. Monomeric refolded IFNAR ECD was purified on HP Q Sepharose using the AKTA FPLC system (Amersham). Purified IFNAR2ECD was immobilized on CM5 Biacore chip using a lysine-specific coupling procedure recommended by the manufacturer. About 200 RUs of functional protein were immobilized. Various concentrations of IFN beta variants in HBS-EP buffer (Biacore) were injected at a flow rate of 50 mcl/minute over the flowcell containing immobilized IFNAR2, and a control flowcell containing immobilized bovine serum albumin. Sensograms generated were fit to the 1:1 interaction model to calculate kₒₙ, koff and Kd values using BiaEvaluation software (Biacore).

- Kd: 0.8 nM
B1: (C17S)-IFNβ (ligand)
chain: MSYNLLGFLQRSSNFQSQKLLWQLNGRLEYCLKDRMNFDIPEEIKQLQQFQKEDAALTIYEMLQNIFAIFRQDSSSTGWNETIVENLLANVYHQINHLKTVLEEKLEKEDFTRGKLMSSLHLKRYYGRILHYLKAKEYSHCAWTIVRVEILRNFYFINRLTGYLRN
notes: also called IFN beta with C17S substitution; (C17S)-IFN beta

— US20090208454A1 (AMBRX, published 2009)
